Molecular target: FtsQ_(50–276), P06136
Assay: BLI
Details: chain shown with the change; GST-e5-FtsB (mutant) in complex with k5-FtsL immobilized; FtsQ analyte 0-60 µM; parent: 0.24 ± 0.01

FtsQ_(50–276), P06136, sequence (P06136 50-276): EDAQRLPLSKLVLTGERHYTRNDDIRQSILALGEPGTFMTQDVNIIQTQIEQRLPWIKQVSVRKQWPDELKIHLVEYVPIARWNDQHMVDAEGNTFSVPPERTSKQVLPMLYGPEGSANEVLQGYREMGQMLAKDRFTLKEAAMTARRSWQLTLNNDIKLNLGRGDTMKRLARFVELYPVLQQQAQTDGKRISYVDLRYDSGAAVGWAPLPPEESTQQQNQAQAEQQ

Kd: 2.4 µM
B1: GST-fused e5-FtsB_(25–103)/k5-FtsL_(64–121) complex (WT), P0A6S5;P0AEN4 E68A (protein)
chain 1: GIHDYTRVNDDVAAQQATNAKLKARNDQLFAEIDDLNGGQEALAERARNELSMTRPGETFYRLVPDASKRAQSAGQNNR
chain 2: TAQREQLVLERDALDIEWRNLILEENALGDHSRVERIATEKLQMQHVDPSQENIVVQK

Reference: PMC6305486
